Experimental findings from US20200072831A1 are described below.

For test [1], the target named is DRB5*01:01 HLA Class II antigen (K cell line host) loaded in vitro with biotinylated CLIP peptide (human). The test is described as follows: Luminex bead assay, Streptavidin-PE detection of biotinylated CLIP loaded on the antigen.
In test [2] the target is DRB1*03:01 HLA Class II antigen loaded in vitro with biotinylated CLIP peptide (human). The test is described as above.
Test [3] addresses DRB5*01:01 HLA Class II antigen expressed in a K cell line host (K562), lacking a CLIP peptide in the peptide binding groove (human). In words: Luminex bead assay, Streptavidin-PE detection of biotinylated CLIP; no-peptide control beads.

Sequence of DRB1*03:01 HLA Class II antigen loaded in vitro with biotinylated CLIP peptide (human) (P04233 97-121 limits assumed, chain 3 of 3, other chains not shown): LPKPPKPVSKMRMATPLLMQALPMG

In the case of “Anti-biotinylated CLIP (Streptavidin-PE, to detect the presence of the biotinylated CLIP) (from UniProt P22629 37-163)”, the results for the MFI in test [1], in test [2] and in test [3] were 4600 MFI, 2810 MFI and 840 MFI, respectively.
